# Measurements: US20220332795A1 (ARO BIOTHERAPEUTICS, published 2022)
# Tests used:
# [1] = target: T1, recombinant biotinylated CD71 extracellular domain (Sino Biologics) with an N-terminal 6His tag (human, UniProt P02786 89-760, biotinylated (site not stated)); assay: primary solution ELISA screen
# T1 construct: extracellular domain; also called hCD71; huCD71 ECD
# [2] = target: T1, recombinant biotinylated CD71 …; assay: primary solution ELISA screen, signal on hCD71 over HSA
# T1 sequence (P02786 other isoform, or with tags, fused parts or gaps): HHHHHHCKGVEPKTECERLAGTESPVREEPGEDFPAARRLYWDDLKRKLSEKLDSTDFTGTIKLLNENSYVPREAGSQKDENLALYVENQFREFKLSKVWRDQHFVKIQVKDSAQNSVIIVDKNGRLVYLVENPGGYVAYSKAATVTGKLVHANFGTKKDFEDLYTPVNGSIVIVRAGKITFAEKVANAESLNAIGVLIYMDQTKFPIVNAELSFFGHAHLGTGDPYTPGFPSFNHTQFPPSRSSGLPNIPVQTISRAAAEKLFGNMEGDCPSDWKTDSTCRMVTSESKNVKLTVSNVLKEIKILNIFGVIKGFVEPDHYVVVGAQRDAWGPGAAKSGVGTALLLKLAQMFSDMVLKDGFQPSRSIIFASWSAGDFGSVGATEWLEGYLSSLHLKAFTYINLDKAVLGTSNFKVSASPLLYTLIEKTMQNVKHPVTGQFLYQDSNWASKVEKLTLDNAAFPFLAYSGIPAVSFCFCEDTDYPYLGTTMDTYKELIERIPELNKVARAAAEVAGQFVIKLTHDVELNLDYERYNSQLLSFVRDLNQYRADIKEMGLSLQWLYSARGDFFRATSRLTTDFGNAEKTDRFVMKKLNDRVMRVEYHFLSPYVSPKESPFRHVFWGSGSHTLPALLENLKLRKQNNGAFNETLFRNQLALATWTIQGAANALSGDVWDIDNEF
Binder,RLU [1],hCD71:HSA [2]
"SEQ ID NO 87 (designed binder, not shown: small tags and cut ends, FN3 domain, hit of the apical domain panning) MLPAPKNLVVSRVTEDSARLSWTAPDAAFDSFAIEYTEFLYSGEAIVLTVPGSERSYDLTGLKPGTEYGVPINGVKGGFVSPPLSAIVTT",282000 RLU,77
"SEQ ID NO 89 (designed binder, not shown: small tags and cut ends, FN3 domain, hit of the apical domain panning) MLPAPENLVVSRVTEDSARLSWTAPDAAFDSFWIEYYEGVIQGEAIVLTVPGSERSYDLTGLKPGTEYFVAIWGVKGGKWSVPLSAIFTT",919000 RLU,141
"SEQ ID NO 63 (designed binder, not shown: small tags and cut ends, FN3 domain, hit of the apical domain panning) MLPAPKNLVVSRVTEDSARLSWTAPDAAFDSFCISYYERMGRGEAIVLTVPGSERSYDLTGLKPGTEYMVYIFGVKGGLNSLPLSAIFTT",4.71e+06 RLU,826
"SEQ ID NO 69 (designed binder, not shown: small tags and cut ends, FN3 domain, hit of the apical domain panning) MLPAPKNLVVSRVTEDSARLSWTAPDAAFDSFHIAYEETATSGEAIYLRVPGSERSYDLTGLKPGTEYGVEIEGVKGGARSRPLYADFTT",3.17e+06 RLU,1170
"SEQ ID NO 58 (designed binder, not shown: small tags and cut ends, FN3 domain, hit of the apical domain panning) MLPAPKNLVVSRVTEDSARLSWTAPDAAFDSFHIEYLELSRHGEAIVLTVPGSERSYDLTGLKPGTEYWVMIFGVKGGGPSKPLSAIFTT",1.04e+06 RLU,101
"SEQ ID NO 71 (designed binder, not shown: small tags and cut ends, FN3 domain, hit of the apical domain panning) MLPAPKNLVVSRVTEDSARLSWTAPDAAFDSFPISYLELSLYGEAIVLTVPGSERSYDLTGLKPGTEYPVGIAGVKGGVVSRPLSAIFTT",2.64e+06 RLU,96
"SEQ ID NO 101 (designed binder, not shown: small tags and cut ends, FN3 domain, hit of the apical domain panning) MLPAPKNLVVSRVTEDSARLSWTAPDAAFDSFHILYEELFLVGEAIVLTVPGSERSYDLTGLKPGTEYKVPISGVKGGPVSRPLSAIFTT",336000 RLU,73
"SEQ ID NO 48 (designed binder, not shown: small tags and cut ends, FN3 domain, hit of the apical domain panning) MLPAPKNLVVSRVTEDSARLSWTAPDAAFDSFLIYYEEGYLEYYYSGEAIVLTVPGSERSYDLTGLKPGTEYYVGIVGVKGGGLSGPLSAISTT",3.04e+06 RLU,26
"SEQ ID NO 47 (designed binder, not shown: small tags and cut ends, FN3 domain, hit of the apical domain panning) MLPAPKNLVVSRVTEDSARLSWTAPDAAFDSFGIVYLEMMVTGEAIVLTVPGSERSYDLTGLKPGTEYDVPILGVKGGTRSVPLSAIFTT",1.99e+06 RLU,98
"SEQ ID NO 59 (designed binder, not shown: small tags and cut ends, FN3 domain, hit of the apical domain panning) MLPAPKNLVVSRVTEDSARLSWTAPDAAFDSFVYNEVHWIGEAIVLTVPGSERSYDLTGLKPGTEYFVGIYGVKGGHWSKPLSAIFTT",1.11e+06 RLU,68
"SEQ ID NO 96 (designed binder, not shown: small tags and cut ends, FN3 domain, hit of the apical domain panning) MSLPAPKNLVVSRVTEDSARLSWTAPDAAFDSFPIAYLEVFYEGEAIVLTVPGSERSYDLTGLKPGTEYQVPIEGVKGGAMSLPLSAIFTT",726000 RLU,48
"SEQ ID NO 75 (designed binder, not shown: small tags and cut ends, FN3 domain, hit of the apical domain panning) MLPAPKNLVVSRVTEDSARLSWTAPDAAFDSFTISYGEEALIGEAIYLRVPGSERSYDLTGLKPGTEYYVHIEGVKGGSWSQPLAAAFTT",530000 RLU,143
"SEQ ID NO 91 (designed binder, not shown: small tags and cut ends, FN3 domain, hit of the apical domain panning) MLPAPKNLVVSRVTEDSARLSWTAPDAAFDSFQIHYWETQGFGEAIVLTVPGSERSYDLTGLKPGTEYPVLIPGVKGGPSSLPLSAIFTT",491000 RLU,74
"SEQ ID NO 78 (designed binder, not shown: small tags and cut ends, FN3 domain, hit of the apical domain panning) MLPAPKNLVVSRVTEDSARLSWTAPDAAFDSFGIGYYEHKRFGEAIQLSVPGSERSYDLTGLKPGTEYEVDIEGVKGGVLSWPLFAEFTT",271000 RLU,29
"SEQ ID NO 61 (designed binder, not shown: small tags and cut ends, FN3 domain, hit of the apical domain panning) MLPAPKNLVVSRVTEDSARLSWTAPDAAFDSFQIVYSELWIKGEAIVLTVPGSERSYDLTGLKPGTEYQVPIPGVKGGRNSFPLSAIFTT",252000 RLU,19
"SEQ ID NO 6 (designed binder, not shown: small tags and cut ends, FN3 domain, hit of the apical domain panning) MLPAPKNLVVSRVTEDSARLSWTAPDAAFDSFPIIYMETFSRGEAIVLTVPGSERSYDLTGLKPGTEYRVPIGGVKGGSSSCPLSAIFTT",315000 RLU,43
"SEQ ID NO 10 (designed binder, not shown: small tags and cut ends, FN3 domain, hit of the apical domain panning) MLPAPKNLVVSRVTEDSARLSWTAPDAAFDSFKIAYIETATRGEAIVLTVPGSERSYDLTGLKPGTEYVVPIPGVKGGNTSSPLSAIFTT",788000 RLU,27

Binder,RLU [1],hCD71:HSA [2]
"SEQ ID NO 62 (designed binder, not shown: small tags and cut ends, FN3 domain, hit of the apical domain panning) MLPAPKNLVVSRVTEDSARLSWTAPDAAFDSFKIRYTETRSIGEAIVLTVPGSERSYDLTGLKPGTEYCVPIGGVKGGDSSWPLSAISTT",229000 RLU,28
"SEQ ID NO 66 (designed binder, not shown: small tags and cut ends, FN3 domain, hit of the apical domain panning) MLPAPKNLVVSRVTEDSARLSWTAPDAAFDSFTIDYDEPRSPGEAIVLTVPGSERSYDLTGLKPGTEYRVFIWGIKGGDTSFPLSAIFTT",232000 RLU,29
"SEQ ID NO 90 (designed binder, not shown: small tags and cut ends, FN3 domain, hit of the apical domain panning) MLPAPKNLVVSRVTEDSARLSWQGVARAFDSFLITYREQIFAGEVIVLTVPGSERSYDLTGLKPGTEYPVWIQGVKGGSPSAEFTT",564000 RLU,46
"SEQ ID NO 72 (designed binder, not shown: small tags and cut ends, FN3 domain, hit of the apical domain panning) MLPAPKNLVVSRVTEDSARLSWTAPDAAFDSFTIGYREWYWYGEAIVLTVPGSERSYDLTGLKPGTEYNVPISGVKGGLDSFPLSAIFTT",338000 RLU,38
"SEQ ID NO 3 (designed binder, not shown: small tags and cut ends, FN3 domain, hit of the apical domain panning) MLPAPKNLVVSRVTEDSARLSWTAPDAAFDSFNIEYAETRWYGEAIVLTVPGSERSYDLTGLKPGTEYVVPIDGVKGGIASKPLSAIFTT",687000 RLU,69
"SEQ ID NO 88 (designed binder, not shown: small tags and cut ends, FN3 domain, hit of the apical domain panning) MLPAPKNLVVSRVTEDSARLSWTAPDAAFDSFPIKYREVLRCGEAIVLTVPGSERSYDLTGLKPGTEYTVPITGVKGGFGSSPLSAIFTT",515000 RLU,21
"SEQ ID NO 79 (designed binder, not shown: small tags and cut ends, FN3 domain, hit of the apical domain panning) MLPAPKNLVVSRVTEDSARLSWTAPDAAFDSFVIEYTERFWSGEAIVLTVPGSERSYDLTGLKPGTEYSVPIDGVKGGQCSTPLSAIFTT",273000 RLU,46
"SEQ ID NO 74 (designed binder, not shown: small tags and cut ends, FN3 domain, hit of the apical domain panning) MLPAPKNLVVSRVTEDSARLSWTAPDAAFDSFSITYLEWWNLGEAIVLTVPGSERSYDLTGLKPGTEYMVTIPGVKGGMSSYPLSAIFTT",824000 RLU,56
"SEQ ID NO 50 (designed binder, not shown: small tags and cut ends, FN3 domain, hit of the apical domain panning) MSLPAPKNLVVSRVTEDSARLSWTAPDAAFDSFTIHYREFQLSGEAIVLTVPGSERSYDLTGLKPGTEYDVPIEGVKGGPGSRPLSAIFTT",321000 RLU,20
"SEQ ID NO 80 (designed binder, not shown: small tags and cut ends, FN3 domain, hit of the apical domain panning) MLPAPKNLVVSRVTEDSARLSWTAPDAAFDSFWIDYEEEGVIGEAIYLHVPGSERSYDLTGLKPGTEYVVKIHGVKGGHPSHPLVAVFTT",844000 RLU,25
"SEQ ID NO 93 (designed binder, not shown: small tags and cut ends, FN3 domain, hit of the apical domain panning) MLPAPKNLVVSRVTEDSARLSWTAPDAAFDSFAIEYYEPVPAGEAIYLDVPGSERSYDLTGLKPGTEYDVTIYGVKGGYYSHPLFASFTT",430000 RLU,91
"SEQ ID NO 67 (designed binder, not shown: small tags and cut ends, FN3 domain, hit of the apical domain panning) MLPAPKNLVVSRVTEDSARLSWTAPDAAFDSFTILYAEQAQFGEAIVLTVPGSERSYDLTGLKPGTEYPITGVKGGTRSGPLSAISTT",1.85e+06 RLU,131
"SEQ ID NO 76 (designed binder, not shown: small tags and cut ends, FN3 domain, hit of the apical domain panning) MLPAPKNLVVSRVTEDSARLSWTAPDAAFDSFTIEYYENIGIGEAIVLTVPGSERSYDLTGLKPGTEYSVPIVGVKGGPYSHPLSAIFTT",674000 RLU,41
"SEQ ID NO 85 (designed binder, not shown: small tags and cut ends, FN3 domain, hit of the apical domain panning) MLPAPKNLVVSRVTEDSARLSWTAPDAAFDSFIIEYFEPIPIGEAIVLTVPGSERSYDLTGLKPGTEYAVNIYGVKGGYLSHPLSAIFTT",210000 RLU,33
"SEQ ID NO 29 (designed binder, not shown: small tags and cut ends, FN3 domain, hit of the apical domain panning) MLPAPKNLVVSRVTEDSARLSWTAPDAAFDSFWIEYWEAVGFGEAIVLTVPGSERSYDLTGLKPGTEYFVGIYGVKGGYLSAPLSAIFTT",2.17e+06 RLU,580
"SEQ ID NO 54 (designed binder, not shown: small tags and cut ends, FN3 domain, hit of the apical domain panning) MLPAPKNLVVSRVTEDSARLSWTAPDAAFDSFAIAYGEHIVIGEAIVLTVPGSERSYDLTGLKPGTEYMVPIAGVKGGPISLPLSAIFTT",579000 RLU,49
